Test results from paper doi:10.1101/2025.03.23.644798 (bioRxiv, 2025).

Biological target: the molecule itself
Experiment: native gel or EMSA

B1: wild-type D-amino acid oxidase from Schizosaccharomyces pombe (enzyme, UniProt Q9Y7N4 1-348, looked up)
chain: MTKENKPRDIVIVGAGVIGLTTAWILSDLGLAPRIKVIAKYTPEDRSVEYTSPWAGANFCSISATDDNALRWDKITYHRFAYLAKTRPEAGIRFADLRELWEYEPKHDKIRSWNTYVRDFKVIPEKDLPGECIYGHKATTFLINAPHYLNYMYKLLIEAGVEFEKKELSHIKETVEETPEASVVFNCTGLWASKLGGVEDPDVYPTRGHVVLVKAPHVTETRILNGKNSDTYIIPRPLNGGVICGGFMQPGNWDREIHPEDTLDILKRTSALMPELFHGKGPEGAEIIQECVGFRPSRKGGARVELDVVPGTSVPLVHDYGASGTGYQAGYGMALDSVMLALPKIKLA
binding result: binds
